Measured values taken from the nanobody polyreactivity screen of Harvey et al. (2022).

assay: yeast display, Sf9 membrane polyspecificity reagent, FACS + sequencing; frameworks hold sequencing errors
Procedure, shortened: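 After 36–48 hours of galactose induction, yeast (Saccharomyces cerevisiae BJ5465) displaying a synthetic nanobody library were stained at 4 °C for 1 hour with 10% biotinylated, detergent-solubilized Sf9 membrane reagent. Streptavidin microbeads enriched the stained cells before FACS sorting into low and high (top ~1%) gates on anti-HA and streptavidin fluorescence. Each clone's polyreactivity label reflects its gate of origin.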

| Sequence | polyreactivity (PSR sort gate) |
| --- | --- |
| QVQLVESGGCLDQAGGSLRLSCAASGRIFNSNTMGWYRQAPGKERELVAAITYSGGSTYYADSVKGRFTISRDNAKNTVYLQMNSLKPEDTAVYYCAADFWEYDGPWYANDYYSWGQGTQVTVSS | low polyreactivity |
| QVQLVESGGGLVQAGGSLRLSCAASGFTFLNYAMGWYRQAPGKERELVAAITRSGGSTYYADSVKGRFTISRDTAKNTVYLQMNSLKPEDTAVYYCAIGYYSPNYYYWGQGTQVTVSS | high polyreactivity |
| QVQLVESGGGLVQAGGSLRLSCAASGSIFDIYAMGWYRQAPGKERELVADITISGGSTYYADSVKGRFTISRDNAKNTVYLQMNSLKPEDTAVYYCAADVTVVLGYKYDYWGQGTQVTVSS | low polyreactivity |
| QVQLVESGGGLVQAGGSLRLSCAASGFTFSNYAMGWYRQAPGKEREFVAAISGTGGSTYYADSVKGRFTISRDNAKNTVYLQMNSLKPEDTAVYYCNARERVSRQYTFDYWGQGTQVTVSS | high polyreactivity |
| QVQLVESGGGLVQAGGSLRLSCAASGSTFDSYAMGWYSQAPGKERELVAAITYSGGRTYYADSVKGRFTISRDNAKNTVYLQMNSLKPEDTAVYYCAATGVFRDEYWGQGTQVTVSS | low polyreactivity |
| QVQLVESGGGLVQAGGRLRLSCAASGRTFARYDRGWYRQAPGKELVLVAGMNGDGGSTNYADSVKGRFTISRDNAKNSVYLQMNSLKPEDTAVYYCNVVQEDRTLHVSIKQLSDHWGQGTQVTVSS | low polyreactivity |
| QVQLVESGGGLVQAGGTLRLSCAASGSTFFVYAMAWYRQEPGKERELVAAISSRGSTYYADSVKGRFTISRDNAKNTVFLQMISLKPEDSAVYFCAAEYTVSYLRMDYWGQGTQVTVSS | low polyreactivity |
| QVQLVESGGGLVQAGGSLRLSCAASGFIFSSYAMGWYRPAPGKERELVAAISKSGGRTYYADSVKGRFTISRDNAKNTVYLQMNSLKPEDTSVYYCAKDVSDPFYDPFEYWGQGTQVTVSS | low polyreactivity |
| QVQLVESGGGLVQAGGSLRLSCAASGRTFGYYVMGWSRQAPGKETELVAAISNTDSTYYADSVKGRFTISRDNAKNTVYLQMNSLKPEDTAVYYCARDDAYSDFDYDYWGQGTQVTVSS | low polyreactivity |
| QVQLVDSGGGIVQAGGSLRLSCAASGLTFSDYAMGWYRQAPGKEREFVAAITRNGGSTRYADSVKGRFTISRDNAKNTVYLQMNSLKPEDTAVDYCATDVGFGSKQRPHRPGYGYWGQGTQVTVSS | low polyreactivity |
| QVQLVESGGGLVQAGGSLLLSCAASGSIFGWYAMGWYRQAPGKERELVAAISSSDGSTYYADSVKGRFTISRDNPKNTVYLQMNSLKPEDTAVYYCATDSAFTYAQYDYWGQGTQVTVSS | low polyreactivity |
| QVQLVESGGGLVQAGGSLRLSCAASGFTFRVNAMGWYRQAPGKERELVAAISSGGSTNYADSVKGRFTISRDNAKYTVYLQMNSLKPEDTAVYYCAKRFKYIYYWGQGTQVTVSS | high polyreactivity |
| QVQLVESGGGLVQAGGSLRLSCAASGFTFVYYAMGWYRQAPGKERELVAAISRSGGSTYYADSVKGRFTISRDNAKNTVNLQMNSLKPEDTAVYYCAARKTYGSRLSYEYWGQGTQVTVSS | high polyreactivity |
| QVQLVESGGGLVQAGGSLRLSCAASGNTFYAYTMGLYIQAPGKERELVAAISSDGSTNYADSVKGRFTISRDNAKNTVYLQMNSLKPEDTAVYYCAVTLEVSTVRDYDYWGQGTQVTVSS | low polyreactivity |
| QVQLVESGGGLVQAGGSLRLSCAASGSTFSSYVMGWYRKAPVKERELVAAISSIGGSTYFADSVKGRFTISRDNAKNTVYLQMNSLKPEDTAVYFCAAEPPGSTYEGGYWGQGTQVTVSS | low polyreactivity |
| QVQLVESGGGLVQAGGSLRLSCAASGRIFQYSAMGWYRQAPGKEREFVASITFRGGRTNYADSVKGRFTISRDNAKNTVYLQMNSLKPEDTAVYYCAVSLRRGGSGYAYDYWGQGTQVTVSS | high polyreactivity |
| QVQLVESGGGLVQAGGSLRLSCAASGGTFAQYVMGWYRQAPGKERELVAAISRTGGRTYYADSVKGRFTISRDNAKNTVYLQMNSLKPEDTAVYYCARVYTSYGTPWTNYDYWGQGTQVTVSS | high polyreactivity |
| QVQLVESGGGLVQAGGSLRLSCAASGSTFTLYAMGWYRKAPGKERELVAAISRSGGRTYYADSVKGRFTISRDNAKNTVYLQMNSLKPEDTAVYYCNAPYKQDYDYWGQGTQVTVSS | high polyreactivity |
| QDQLVESGGGLVQAGGSLRLRCAASGFTFGCYAMGWYRQAPGKERELVASITSGGSTNYADSVKGRFTISRDNAKNTVYLQMNTLKPEDTAVYYCAKDLLGFDKVQYKIEDYWGQGTQVTVSS | low polyreactivity |
| QVQLVESGGGLVQAGGSLRLSCAASGRTFPRNGMGWYRQAPGKERELVAAISWSGGRTYYADSVKGRFTISRDNAKNTVYLQMNSLKPEDTAVYYCNALYFRKAGYWGKGTQVTVSS | high polyreactivity |
| QVQLVESGGGLVQAGGSLRLSCAASGRSFKYNAMGWYRQAPGKERELVAAISISGGSTYYADSVKGRFTISRDNAKNTVYLQMNSLKPEDTAVYYCNDDTYYLSDYVTFDYWGQGTQVTVSS | low polyreactivity |

| Sequence | polyreactivity (PSR sort gate) |
| --- | --- |
| QVQLVESGGCLVQAGGSLRLSCAASGRTFIGYAMGWYRQAPGKERELVAAISSTGGSTYYADSVKGRFTISRDNAKNTVYLQMNSLKPEDTAVYYCATDAARPPRTPDISDVSNFDYWGQGTQVTVSS | low polyreactivity |
| QVQLVESGGGLVQAGGSLRLSCAASGFTFSTNAMGWYRQAPGKERELVAAISKSGVSTYYADSVKGRFTISRDNAKNTVYLQMNSLKPEDTAVYYCAADPKIALYKVWRYDYWGQGTQVTVSS | high polyreactivity |
| QVQLVESGGGLVQAGCRLRLSCAASGININAMGWYRQAPGKERELVAAISRGGSTYYADSVKGRFTISRDNAKNTVYLQMNSLKPEDTAVYYCAKLIGRWRLYHTFVKGDYWGQGTQVTVSS | high polyreactivity |
| QVQLVESGGGLVQAGGSLRLSCAASGLIFYTYAMGWYRQAPGKERELVAGISRSGTSTRYADSVKGRFTISRDNAKNTVYLQMNSLKPEDTAVYYCNAVGRSKHGYSRSYYWGQGTQVTVSS | high polyreactivity |
| QVQLVESGGGLVQAGGSLRLSCAASASIFSVYAMGWYRQAPGKERELVAAITRSGARTYYADSVKGRFTISRDNAKNTVYLQMNSLKPDDTAVYYCAADDPGYNQVEYWGQGTQVTVSS | high polyreactivity |
| QVQLVESGGGLVQAGGSLRLSCAASGFTSYTNAMGWYRQAPGKERELVAAIDVSGSDTYYADSVKGRFTISRDNAKNTVYLQMNSLKPEDTAVYYCAAEYYSYYYQGYDYWGQGTQVTVSS | high polyreactivity |
| QVQLVESGGGLVQAGGRLRLSCAASGFTFVRNTMGWYRQAPGKDRELVAAISRSGGSTYYADSVKGRFTISRDNAKNTVYLQMNSLKPEDTAVYYCNAYRYLHYDWGQGTQVTVSS | high polyreactivity |
| QDQLVESGGGLVQAGGSLRLSCAASGSICSEYAMGWYRQAPGKERELVAAISRSGGTTYYADSVKGRFTISRDNAKNTVFLQMNSLKPEDTAVYYCAARYFRGSYPMGYWGQGTQVTVSS | high polyreactivity |
| QVQLVESGGGLVQAGGSLRLICAASGSTLYRYAMGWYRPAPGKERELVAAISSAGSTHYADSVKGRFTISRDNAKNTVYLQMNSLKPEDTAVYYCAAKRYLKYGYWGQGTQVTVSS | high polyreactivity |
| QVQLVESGGGLVQAGGSLRLSCAASGRTFGVYAMGWYRQAPGKERELVADITSGGGTYYADSVKGRFTILRDNAKNTVYLQMNSLKPEDTAVYYCAARKWYYAYDYWGQGTQVTVSS | high polyreactivity |
| QVQLVESGGGLVQAGGSLRLSCAASGSIFLVYSMGWYRQAPGKERELVAAISRSGRTYADSVKGRFTISRDNAKNTVYLQMNSLKPEDTAVYYCNKLAVRPGYGSTYDYWGQGTQVTVSS | high polyreactivity |
| QVQLVESGGGLVQAGGSLRLSCAASGSTFWYYAMGWYRQAPGKEWEFVAAIKWSGGRTDYADSVKGRFTISRDIAKNTVYLQMNSLKAEDTAVYYFAADYSFRSFPIDANVLGYEYWGQGTQVTVSS | high polyreactivity |
| PVKLVESGGGLVQAGGSLRLSCAASGFTFFRNAMGWYRQAPGKERELVAAISGSGGRTYDADSVKGRFTISRDNAKNPVYLQLNSLKLEDTAVYYCAAVPVDPGYDYWGQGTQVTVSS | high polyreactivity |
| QVQLVESGGGLVQAGGSLRLSCAASGSTFEFYAMGWYRQAPGKERELVAAISSIGGSTYYADSVKGRFTISRDNAKNTVYLQMNSLKPEDTAVYYCAATSDSSLYVYWGQGTQVTVSS | low polyreactivity |
| QVQLVESGGGLVQSGGSLRLSCAASGRTFYNNAMGWYRQAPGKERELVATINNRGGTTYYADSVKGRFTISRDNAKNTVYLQMNSLKPEDTAVYYCANSAQRYSYRYYYWGQGTQVTVSS | high polyreactivity |
| QVQLVESGGGLVQAGGSLRFSCAASGITFVYYARGWYRQAPGKERELVAAITRSGDSTYYADSVKGRFTISRDNAKNTVYLQMNSLKPEDTAVYYCAAESYYSTYQVEYYDWGQGTQVTVSS | high polyreactivity |
| QVQLGESGGGLLQAGGSLRLSCAASGFTFYGYAMGWYRQAPGKERELVAAISRRGGSTYYADSVKGRFTISRDNAKYTVYVQMNSLKPEDTAVYYCITLFSHLRDRYDYWGQGTEVTVSS | high polyreactivity |
| QVQLVESGGGLVQAGGSLRLSCAASGLTFWPNAMGWYRQAPGKERELVAAISYTGGITYYADSVKGRFTISRDNAKNTDYLQMNSLKPEDTAVYSCNKGRRGYYSVRRYDYWGQGTQVTVSS | low polyreactivity |
| QVQLVESGGGLVQAGGSLRISCAASGITFLEYAMGWYRQAPGKERELVATINSGGSTNYADSVKGRFTISRDNAKNTVYLQMNSLKQEDNAVYYCSADYGSDYTKGDYWGQGTQVTVSS | low polyreactivity |
| QVQLVESGGGLVQAGGSLRLSCAASGFIFAYNAMGWYRQAPGKERELVAAISWSGGSTYYADSVKGRFTISRDNAKNTVYLQMNSLKPEYTAVYYCNAKYLGRRWDGNYNYWGQGTQVTVSS | high polyreactivity |
